Where no end group is shown, it is not given here.
Columns and labels:
HCV core peptide 80 = HCV core peptide 80 (hepatitis C virus, N-terminal biotin; C-terminal amide); test: peptide EIA, 2 ug/mL IgG;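 further: purified mouse IgG binding to individually well-coated synthetic peptides, detected with peroxidase anti-mouse IgG Fc and o-phenylenediamine, IgG incubated at least 1 h at room temperature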
Method: (§1) The coated plates were kept dry in a sealed foil pouch and stored at <10 degrees C. until ready for use. A peptide coated plate for each test antibody was blocked using 3% BSA in PBS with 0.5% Tween 20. The blocked plates were washed with distilled water and a 2 ug/mL solution of purified IgG from each test sample diluted in BSA block solution was added to each peptide coated well of the blocked plate and allowed to incubate at room temperature for at least one hour. Following incubation the plates were washed with distilled water. A 200 ng/mL solution of peroxidase labeled F(ab′)2 fragment goat anti-mouse IgG Fc fragment specific (Jackson Immunoresearch) in BSA block solution was added to all wells and incubated at room temperature for 30 minutes. The plates were washed with distilled water and o-phenylenediamine substrate was used as the chromagen to generate signal. Plates were read at 492 nm and the results were analyzed.

HCV core peptide 53 = target: T1, HCV core peptide 53 (hepatitis C virus, HELM PEPTIDE1{[O=C1N[C@H]2[C@H](CS[C@H]2CCCCC(=O)[*:2])N1].S.G.S.G.P.S.W.G.P.T.D.P.R.R.R.S.R.N.L.[am]}$$$$V2.0; SMILES …); test: peptide EIA, 2 ug/mL IgG (summary table)
T1 peptide: SGSGPSWGPTDPRRRSRNL
Method: as §1

HCV core peptide 55 = target: T2, HCV core peptide 55 (hepatitis C virus, HELM PEPTIDE1{[O=C1N[C@H]2[C@H](CS[C@H]2CCCCC(=O)[*:2])N1].S.G.S.G.P.T.D.P.R.R.R.S.R.N.L.G.K.V.I.[am]}$$$$V2.0; SMILES …); test: peptide EIA, 2 ug/mL IgG (summary table)
T2 construct: also called aa 109-123
T2 peptide: SGSGPTDPRRRSRNLGKVI
Method: as §1

HCV core peptide 48 [1] = target: T3, HCV core peptide 48 (hepatitis C virus, HELM PEPTIDE1{[O=C1N[C@H]2[C@H](CS[C@H]2CCCCC(=O)[*:2])N1].S.G.S.G.G.W.L.L.S.P.R.G.S.R.P.S.W.G.P.[am]}$$$$V2.0; SMILES …); test: peptide EIA, 2 ug/mL IgG (summary table)
T3 construct: also called aa 95-109
T3 peptide: SGSGGWLLSPRGSRPSWGP
Method: as §1

HCV core peptide 52 = target: T4, HCV core peptide 52 (hepatitis C virus, HELM PEPTIDE1{[O=C1N[C@H]2[C@H](CS[C@H]2CCCCC(=O)[*:2])N1].S.G.S.G.S.R.P.S.W.G.P.T.D.P.R.R.R.S.R.[am]}$$$$V2.0; SMILES …); test: peptide EIA, 2 ug/mL IgG (summary table)
T4 peptide: SGSGSRPSWGPTDPRRRSR
Method: as §1

HCV core peptide 49 [2] = target: T5, HCV core peptide 49 (hepatitis C virus, HELM PEPTIDE1{[O=C1N[C@H]2[C@H](CS[C@H]2CCCCC(=O)[*:2])N1].S.G.S.G.L.L.S.P.R.G.S.R.P.S.W.G.P.T.D.[am]}$$$$V2.0; SMILES …); test: peptide EIA, 2 ug/mL IgG (summary table)
T5 peptide: SGSGLLSPRGSRPSWGPTD
Method: as §1

HCV core peptide 51 = target: T6, HCV core peptide 51 (hepatitis C virus, HELM PEPTIDE1{[O=C1N[C@H]2[C@H](CS[C@H]2CCCCC(=O)[*:2])N1].S.G.S.G.R.G.S.R.P.S.W.G.P.T.D.P.R.R.R.[am]}$$$$V2.0; SMILES …); test: peptide EIA, 2 ug/mL IgG (summary table)
T6 peptide: SGSGRGSRPSWGPTDPRRR
Method: as §1

HCV core peptide 54 = target: T7, HCV core peptide 54 (hepatitis C virus, HELM PEPTIDE1{[O=C1N[C@H]2[C@H](CS[C@H]2CCCCC(=O)[*:2])N1].S.G.S.G.W.G.P.T.D.P.R.R.R.S.R.N.L.G.K.[am]}$$$$V2.0; SMILES …); test: peptide EIA, 2 ug/mL IgG (summary table)
T7 peptide: SGSGWGPTDPRRRSRNLGK
Method: as §1

HCV core peptide 50 = target: T8, HCV core peptide 50 (hepatitis C virus, HELM PEPTIDE1{[O=C1N[C@H]2[C@H](CS[C@H]2CCCCC(=O)[*:2])N1].S.G.S.G.S.P.R.G.S.R.P.S.W.G.P.T.D.P.R.[am]}$$$$V2.0; SMILES …); test: peptide EIA, 2 ug/mL IgG (summary table)
T8 construct: also called aa 99-113
T8 peptide: SGSGSPRGSRPSWGPTDPR
Method: as §1

HCV core peptide 48 [3] = target: T3, HCV core peptide 48; test: peptide EIA
HCV core peptide 49 [4] = target: T5, HCV core peptide 49; test: peptide EIA
[5] = target: T9, C113WT biotin labeled HCV core peptide (hepatitis C virus, also: biotin labeled, position not given here); test: capture EIA with biotin peptide
T9 peptide: RGSRPSWGPTD

[6] = target: T10, C113T109N biotin labeled HCV core peptide (hepatitis C virus, also: biotin labeled, position not given here); test: capture EIA with biotin peptide
T10 construct: also called C113T110N
T10 peptide: RGSRPSWGPND

[7] = target: T11, 92-133 biotin labeled HCV core peptide (hepatitis C virus, UniProt Q9WMX2 92-133, chain 1: biotin label (bt-pep). Its position and any spacer are not visible in the passages shown.); test: capture EIA; Ab 31.25 ng/mL; bt-peptide 500 ng/mL
T11 construct: Only the label 92-133 is printed
T11 peptide: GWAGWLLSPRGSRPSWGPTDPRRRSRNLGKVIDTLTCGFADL
Method: (§2) Assay wells were coated with sheep anti-mouse IgG Fc specific antibody and incubated overnight. The coating solution was then removed; the wells blocked using BSA/tween in PBS and then washed with dH2O. […] Next, biotin labeled peptides (diluted to 500 ng/mL in block) were added, the plates incubated for 10 minutes while shaking at 700 rpm and then washed. Peroxidase conjugated streptavidin (diluted to 200 ng/mL in block) was then added to all assay wells, incubated for 20 minutes while shaking at 700 rpm and then washed. Finally, color was developed using OPD and signal quenched using 1N H₂SO₄. Signal was read at 492 nm.

[8] = target: T12, WT1STHV biotin labeled HCV core peptide (hepatitis C virus, biotin labeled (position not given)); test: capture EIA; Ab 31.25 ng/mL; bt-peptide 500 ng/mL
T12 peptide: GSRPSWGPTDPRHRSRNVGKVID

[9] = target: T13, Mut1T110N biotin labeled HCV core peptide (hepatitis C virus, biotin labeled (position not given)); test: capture EIA; Ab 31.25 ng/mL; bt-peptide 500 ng/mL
T13 peptide: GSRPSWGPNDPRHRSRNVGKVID

[10] = target: T9, C113WT biotin labeled HCV core peptide; test: capture EIA; Ab 31.25 ng/mL; bt-peptide 500 ng/mL
Method: as §2

[11] = target: T10, C113T109N biotin labeled HCV core …; test: capture EIA; Ab 31.25 ng/mL; bt-peptide 500 ng/mL
Method: as §2

[12] = target: Mut6T110S biotin labeled HCV core peptide (hepatitis C virus, biotin labeled (position not given)); test: capture EIA; Ab 31.25 ng/mL; bt-peptide 500 ng/mL

B1: Neo4 mouse monoclonal antibody (antibody, V domains shown)
VH: QIQLKESGPAVIKPSQSLSLTCIVSGFSITSSVYCWQWIRQPPGKGLEWMGRICYDGSVDYSPSITSRGTISRDTSLNKVFFQLSSVTNEDTAMYYCSRENHIDYYDTTYPSFDVWGAGTTVTVSS
VL: DIVLTQSPASLIVSLGQRATISCRASKSVNEYGYTYMHWYQQKPGLPPKLLIYLASNLDSGVPARFSGSGSGTDFTLNIHPVEEEDAATYYCQHSRELPYTFGGGTKLEIKR
notes: Mouse hybridoma antibody, isotype IgG1, purified with Protein G; also called HCV Neo4
B1 was tested, and the “OD (A492 nm)” value (HCV core peptide 80) was 0.05 OD, the “OD (A492 nm)” value (HCV core peptide 53) was 0.96 OD and the “OD (A492 nm)” value (HCV core peptide 55) was 0.97 OD. For the same binder, the “OD (A492 nm)” value (HCV core peptide 48 [1]) was 0.04 OD, the “OD (A492 nm)” value (HCV core peptide 52) was 0.93 OD and the “OD (A492 nm)” value (HCV core peptide 49 [2]) was 0.05 OD. The “OD (A492 nm)” value (HCV core peptide 51) was 0.96 OD, the “OD (A492 nm)” value (HCV core peptide 54) was 1.01 OD and the “OD (A492 nm)” value (HCV core peptide 50) was 1.03 OD. B1: no binding (HCV core peptide 48 [3]); no binding (HCV core peptide 49 [4]); no binding [5]. For the same binder, the binding result [6] was “no binding”, the “signal at 492 nm” value [7] was 1.11 A492 and the “signal at 492 nm” value [8] was 1.67 A492. For the same binder, the “signal at 492 nm” value [9] was 0.0938 A492, the “signal at 492 nm” value [10] was 0.0622 A492 and the “signal at 492 nm” value [11] was 0.0815 A492. For the same binder, the “signal at 492 nm” value [12] was 0.48 A492.

Source: US20190170753A1 (ICAHN SCHOOL OF MEDICINE AT MOUNT SINAI, published 2019)
